According to a protein production outcome set (Wang et al. 2014):

Assay: label from the status in PepcDB records

Sequence	protein production
MKTINLSIFGLGNVGLNLLRIIRSFNEENRLGLKFNVVFVADSLHSYYNERIDIGKVISYKEKGSLDSLEYESISASEALARDFDIVVDATPASADGKKELAFYKETFENGKDVVTANKSGLANFWPEIMEYARSNNRRIRYEATVAGGVPLFSFIDYSVLPSRIKKFRGIVSLTINYFIRELANKREFDDVLSEATKLGIVEKNYKDDLTGLDAARKSVILCNHLYGSSYRLSDVFYEGILDQDRSFGKNERLVTETGIVNGKPSAESRIKSLDSNDYLLTLGKGSLGYQLQTDTNGTLNVSDLYDGPYETAGAVMNDLVILSMFTV	not failed
MHVQEWLETVPAVSIYALVGLVIGLESLGIPLPGEIVLISAALLSSQHGGINPVILGICATVGAVVGDSIGYAIGRKGGRPLLAWLGNKFPRHFGEGHIATAERSFEKWGMWAVFFGRFVALLRIFAGPLAGVLRMPYWKFLIANVLGGIIWAGGTTAVIYYVGVVAESWLKRFSYLGLVAAVLIGLASMLVIKRKAKKAAAEREAAEPETVPAAD	failed
MSMHPFLASPQQKIVSRMSPRPPPSPVCLGDLTHPIIAGLISVIVNYGGTFILVFQAAKIAGLSPELTASWVWSISIGVGLTGLFLSLRYREPIITAWSTPAAAFLVTALATTPYAEAIGAYMISAAAFVVLGLSGYFEKVIRLIPPGIASGLLAGILLQFGIGAFGGASVDPWLVGLLIAAYVALKRFSARYAVVGILLLGLAFLLTQGRVDLSGLKLVFAAPVFSMPEFSLNALLSVALPLFLITLTGQYMPGMLVLRNDGFKTSANPIVTVTGLGSLIMAPFGSHAFNIAAITAAIATGREAHEDPSKRWIAGIAAGCFYVLVGVFGVTLAAVFMAFPATFITTLAGLALLGTIGGSLAGAMADPTSREAALITFLASAANIKLLGIGGAFWGLLIGGLAYVVLNGPMPYRATTDHRVTEAAAK	failed
MSLQSQPIALELIVRNHPGVMTHICGLFARRAFNVDGILCLPMKNSDKSRIWLLVQKDERLMQMVSQVEKLEDVKEVRFSDDLRVFEQMESYLN	not failed
MSIESDMIHVEVVYALPHEQRVFNLVVNNHATVEEIIRQSGVLELYPEIDLAKNKVGVFSRNVKLDATVRDKDRIEIYRPLLADPKEIRRKRAEQAKAAGNADPVTGGKPNALRK	failed
MDGVLKGFFVVSIVLLIGYILGKTKALGPEGSKVLSTLTFMVGLPCLMFSAIASRHINDVLSATGLISVVTAVAVMLVFTVAGTIARWGVRRTTIGALSVGIVNSTNLGVPLSLYILGSATYVTPIMLFQLAIVTPIALTILDLTDPAGKKVSVWRTLSIPFRNPVTVAAILGVLVSALGIQLPSLVLDPLALVAQLAVPLMLIIFGMSLHGLSVRPGIDDRVPTTIAVILKSAIQPVLAWVLAAFVFQLDPFSTFVVTACAILPTGQNVVLYSVRYGVGQGIAQSTAVFTSILAVPLLLGAAWLFG	failed
MKKLIIAALGLTLILSGCAPKLDSNDKVVQKDDKKAETGIMTKNQISSNYYKTVLPYKASKSRGLVVSNIYSRYDINELESGLMRVSQNKYSPDNYLFQEGQYLDKETLEKWLDRKSEKNPNGLNPESNGDGKDRKPIYLAHILEQDYLKQTDKDTVALGGISIALAMNSVDYYQKEQYGDTFEQEISDSDLLAQGKEMSGTVLNRIRQTKGLENVPVTIAIYKQGPRDAVAPGNFLTYATANGDSLSSWKDVEEKNYVLPSTESAKDHKTDNDNFLNFKKAIEDYYPNFTGVVGRARYEDGQLAELSIDIPLQFYGQAEIIGFTQYVTDLVGQHIPKTADLQVNISTSDGPAALITRKANEDAATAHIYD	failed
MMFDEFKRTILREDIKYEIFRKFFHIFSLIVLVFYRINFWIGLFSNILFMILYLSSEIFRITEKKILFFKNISNIILKSRKILPNRVSFSPVFLFLGILISYCLSMHPFNYIGIFSVCLGDGFASLIGKLIPSFKLVNGKTISGSLVVFCVTFFSYYYFFPYLTVALILGILAVLVELFDAANYDNLFLPLVVSASSYFLTSFFYSQ	failed
MDDVLRRNPLFAALDDEQSAELRASMSEVTLARGDTLFHEGDPGDRLYVVTEGKVKLHRTSPDGRENMLAVVGPSELIGELSLFDPGPRTATGTALTEVKLLALGHGDLQPWLNVRPEVATALLRAVARRLRKTNDAMSDLVFSDVPGRVARALLDLSRRFGVQSEEGIHVVHDLTQEELAQLVGASRETVNKALADFAQRGWLRLEARAVILLDVERLAKRSR	failed
MSRVKNVVELLETKGVDALYLTKKTNVNYISGFPDEEAYAVICKDGNFLVTDSRYMELAEKVCKDFEIINWHNFDRSVAKAVKSVCDKVGIKKLGFERTNIVFDKYEELKNLIEKDNGELIPTENIVETLRYVKDKDEIKNTRKACEIADKALEELIPHIKAGVSEIELATKLEYFMKMNGAQNIGFETILISGAKTSLLHGKPSDKIIEKGDFVLIDYGAMYNGYISDTTRTFIVGGASEKQLEIYNLVKEAQNVGVENMKAGVHATIPDAEIRKVVKKYEDYYYQGIGHGVGRDVHEEPFIGNYGDKIIEEGCIITMEPGIYFPGWGGVRIEDTVLITKNGPERLTKFPKDLMILDK	failed
MSVISIILVLIIAFLAGLDGILDQFQFHQPLVSCTLIGLASGHTVAGIMLGGTLQFLALGWANIGAAVAPDVALASTAAAVIMIKGGDFSQKGITIAYGVAVPLAIAGLALTMVVRAISIGIVHGADAAAKNGNIRAVERSHYFALLLQGLRIVFPVALLLALPANHVKSILEAIPSWLSDGMTIGGGMVVAVGYAMILNMMATREVWPFFIIGFVLAAIPDTQITLFGLGMIGVALAMIYIALTNQTGRNSSSGQASSSSNDPIGDILEDY	failed
MNYEEIVCDANNLYRAYKASVKTSKWKETTQKFMMNFLRYIFSIQDDLINRTLQNGPTQEFTLFERGRVRPITSIQIRDRIIRHVLCDEILLPEVKKHIIYDNCASIKGRGISHQRDRFEVHLRKYYRLYGNEGWILFGDFSKFYDNIIHEIAKRELLRLFDDDEFIDWLLTQIFDGFKIDVSYMTDEEYATCMTDTFNKLEYRNIPESKLTGEKWMEKSVNIGDQLSQVIGIYYPYRIDNYVKYVRSQKFYGRYMDDWYIMNPSKEELLDLLDHIHQIAEEYGIHINRKKTRIVKISSTYKFLQIKYSLTDSGKVIKRINPKRVTAMRRKLKRLAVKVKNEEISYENVENMFRSWMGGFYKLLSKEQRKNLIGLYEDLFEKSIEIVNKKMIIVDKTR	failed
MLGYAAMNRTLRERDPPRRCNRDMQKKTWESEGIEYAATLAAQNFEDLREILLWNRDHGIDFYRCSSKLVPWNSQFDITALPNYERVQSLAAECGALVQDNDMRLTFHPSHWCKLASESDDTVARSVESVEHHGRWLDLMGVPRSPRYAINVHIGAHYGDKAATADRFCDVVSDLAPRARDRLTVENDDTESLWSVQELVTDVASQVDIPVTFDYHHHSFTDRGLTYREGFELARETWDGARPITHYSEPARLRPDSDASPQAHADHVAAVPTWL	failed
MITLAVRLKNLAFLLIAVLALSFLGIRYADLGRYVGVADYYTVDVHLPRTGGLFTHSDVTYRGVSVGRVGPIDLTAEGVVAELRIKKSAPRIPADTKAVVAGLSAVGEQYIDLRPESDGSPYLADGTRIEQADTEVPAPVTDVLTSVDDLASSVPLEDLRTVVDEFGKAFDGHGDDLQVLLDSGSDFVEAADRALPSTTLLINDGETVLRTQAQEARAIRDFAVGAKDLAAALKGSDADLRRLLAVTPEAATQVSGLLRDLDPSLGVVLANLLTTSEVAVTRQRGIEELLVKYPAAVSAGATAVDGGKLDLGLAVTFFSPLPCTDGYGGTRYRNGLDLGTAPALNTDAACTAPASGGKNVRGSANAPKSGAVPDPATPGSLPSGGGRTTPAGGGSPARDGSTALPGALALPGQSGEAPAGLTGLLAPAAGGARLEHHHHHH	failed
MVWLAVFLAVLGAFFLAIGAQRQGSAVKADTGGLALSSNGFLRLLRNPRWMLGLLFLALGMVMNAVALVSAPLTVVQPIGAIALVITTVVNAKDQGLSINRATVVAISACVTGSALFVLLAVNVTQENHHVNTEDELTIVLLLALAVGIFGTLAVVFRHRMSAFVYILGAGVLFGFVAVLTRIIGKHLLDPNGLFLLNVQWYTLIAIVAAGGLGSWFVQSAYSGGPPDLVIAGLTVIDPMVGIAIGIVILGELRPDVHAVMAIAMAAAATLAIVGVIALSRHHPEVTKRKKDAKAAASRKA	failed
